Results from patent US20200188539A1 (CURATORS OF THE UNIVERSITY OF MISSOURI, published 2020).
Blank lines part the entries; values can stand above or below the binder they belong to. Square brackets hold non-standard residues; d marks the D form. * marks the point of attachment. DUPA = PSMA-binding small-molecule urea, O=C(O)CC[C@H](NC(=O)N[C@@H](CCC(=O)*)C(=O)O)C(=O)O; DOTA = O=C(O)CN1CCN(CC(=O)O)CCN(CC(=O)*)CCN(CC(=O)O)CC1; Sta = CC(C)C[C@H](N)[C@@H](O)CC(=O)O; 4Abz = Nc1ccc(C(=O)O)cc1; Ahx = NCCCCCC(=O)O; Ava = NCCCCC(=O)O

How the values were obtained:
[1] = molecular target: prostate specific membrane antigen (human (human prostate LNCaP cells), UniProt Q04609 1-750); experiment: cell-based or functional assay
[2] = molecular target: T1, gastrin-releasing peptide receptor (human (human prostate PC-3 cells), UniProt P30550 1-384); experiment: competitive displacement of 125I-(Tyr4)-BBN on GRPR-positive PC-3 cells
T1 construct: whole, on cells; Endogenous receptor on PC-3 cells; also called GRPR; GRPr
Protocol: (§1) (NAAG) as the radioligands. For the GRPR-positive assay, 3×10⁴ PC-3 cells (in D-MEM/F-12 K media containing 0.01 M MEM and 2% BSA, pH=5.5) were incubated with 20,000 counts per minute of [¹²⁵I-(Tyr4)-BBN] and increasing concentrations (1×10⁻¹³-1×10⁻⁵ M) of the metallated targeting vector (1 h, 37° C., 5% CO₂-enriched atmosphere). After incubation, the reaction medium was aspirated and the cells were rinsed three times with cold media. Cell-associated radioactivity was determined using a Packard Riastar gamma counter. The percent of bound radioligand was plotted against the increasing concentrations of the metallated conjugate to determine the IC₅₀ value. IC₅₀ values were determined by curve fitting using Prism Software (version 6.0). For the PSMA-positive assay, the binding affinity was measured using the N-acetylated-α-linked acidic dipeptidase (NAALADase) assay. […] (increasing concentrations 1×10⁻¹³-1×10⁻⁵ M) in 50 μL of Tris-HCl buffer (50 mM, pH=7.4) were incubated with LNCaP tissue culture homogenized cell membranes for a period of 45 min. Then, [N-acetyl aspartyl ³H-glutamate] was added to the reaction mixture and the solution was allowed to incubate for an additional 15 min at 37° C. The enzymatic reaction was stopped by addition of 50 μL of cold sodium phosphate buffer (0.1 M, pH=7.4). [N-acetyl aspartyl ³H-glutamate] and [³H-glutamate] were resolved by cation exchange chromatography using AG 50 W-X8 columns (200-400 mesh). Columns were pre-equilibrated with 0.2 M HCl prior to loading of the reaction mixture. Fractions containing [³H-glutamate] were eluted using 6 mL of 2 M HCl. Scintillation cocktail was added to each fraction and the amount of radioactivity in each was determined by liquid scintillation counting. The percent of bound radioligand was plotted against the increasing concentrations of the conjugate to determine the IC₅₀ value. IC₅₀ values were determined by curve fitting using Prism Software (version 6.0).

[3] = molecular target: T1, gastrin-releasing peptide receptor; experiment: competitive displacement of 125I-[Tyr4]BBN on human prostate PC-3 cells (FIG. 2)
Protocol: as §1, with “6.0).” for “6.0). For the PSMA-positive assay, the binding affinity was measured using the N-acetylated-α-linked acidic dipeptidase (NAALADase) assay.”, “[N-acetyl aspartyl ³H-glutamate] and [³H-glutamate] were resolved by cation exchange chromatography using AG 50 W-X8 columns (200-400 mesh). Columns were pre-equilibrated with 0.2 M HCl prior to loading of the reaction mixture. Fractions containing [³H-glutamate] were eluted using 6 mL of 2 M HCl.” left out, “The percent of bound radioligand was plotted against the increasing concentrations of the conjugate to determine the IC₅₀ value.” left out

T1 sequence (P30550 whole entry): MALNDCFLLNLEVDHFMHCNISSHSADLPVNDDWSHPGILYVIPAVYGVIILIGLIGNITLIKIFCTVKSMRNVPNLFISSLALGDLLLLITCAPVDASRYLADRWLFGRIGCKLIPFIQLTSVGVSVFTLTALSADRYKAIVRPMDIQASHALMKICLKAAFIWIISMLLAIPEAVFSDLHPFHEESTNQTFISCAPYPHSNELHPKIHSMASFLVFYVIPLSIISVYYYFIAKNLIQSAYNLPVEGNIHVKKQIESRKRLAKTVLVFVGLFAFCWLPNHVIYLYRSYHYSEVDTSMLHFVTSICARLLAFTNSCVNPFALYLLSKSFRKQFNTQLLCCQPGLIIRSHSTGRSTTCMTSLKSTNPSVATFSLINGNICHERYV
prostate specific membrane antigen, sequence (Q04609 whole entry): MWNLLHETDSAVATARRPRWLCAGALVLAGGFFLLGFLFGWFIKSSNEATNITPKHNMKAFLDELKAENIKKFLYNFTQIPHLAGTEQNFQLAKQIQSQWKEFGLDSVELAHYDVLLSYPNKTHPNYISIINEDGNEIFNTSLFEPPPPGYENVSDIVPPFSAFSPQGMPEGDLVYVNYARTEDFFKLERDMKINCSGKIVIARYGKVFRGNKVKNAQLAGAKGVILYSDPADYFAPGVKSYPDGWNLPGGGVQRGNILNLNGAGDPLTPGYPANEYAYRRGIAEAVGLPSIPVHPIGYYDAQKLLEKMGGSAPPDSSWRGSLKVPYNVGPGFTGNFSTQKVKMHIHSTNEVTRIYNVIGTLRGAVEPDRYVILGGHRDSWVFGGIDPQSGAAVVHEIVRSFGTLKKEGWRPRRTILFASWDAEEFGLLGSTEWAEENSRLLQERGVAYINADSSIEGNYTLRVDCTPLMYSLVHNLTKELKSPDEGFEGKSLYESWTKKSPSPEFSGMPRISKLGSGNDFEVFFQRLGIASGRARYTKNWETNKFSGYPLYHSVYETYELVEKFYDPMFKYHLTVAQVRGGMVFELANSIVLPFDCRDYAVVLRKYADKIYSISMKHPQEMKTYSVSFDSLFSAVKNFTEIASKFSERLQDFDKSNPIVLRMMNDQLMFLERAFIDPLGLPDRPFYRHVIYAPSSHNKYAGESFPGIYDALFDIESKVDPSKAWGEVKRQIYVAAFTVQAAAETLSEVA

B4: [DUPA-6-Ahx-[DOTA]-AMBA-RM2] (peptide)
peptide: {DUPA-Ahx}-K(DOTA)[4Abz][dF]QWAVGH[Sta]L-NH2
notes: Unmetallated bivalent conjugate; also called [DUPA-6-Ahx-Lys[DOTA]-X-RM2], X=AMBA
IC50 [2]: 5.27 nM

B5: [DUPA-6-Ahx-[^natIn-DOTA]-5-Ava- RM2] (peptide)
peptide: {DUPA-Ahx}-K(DOTA)[Ava][dF]QWAVGH[Sta]L-NH2
modifications: also: DOTA complexed with natural indium
IC50 LNCaP cells (NAALADase assay, [N-acetyl aspartyl 3H-glutamate] substrate, LNCaP homogenized cell membranes) [1]: 14.4 nM

Next, values leading:

IC50 LNCaP cells (NAALADase assay, [N-acetyl aspartyl 3H-glutamate] substrate, LNCaP homogenized cell membranes) [1]: 14.9 nM
B1: [DUPA-6-Ahx-[^natIn-DOTA-AMBA-RM2] (peptide)
peptide: {DUPA-Ahx}-K(DOTA)[4Abz][dF]QWAVGH[Sta]L-NH2
modifications: also: DOTA complexed with natural indium

IC50 [2]: 3.85 nM
IC50 [3]: 3.99 nM
B2: [DUPA-6-Ahx-Lys(DOTA)-6-Ahx-RM2] (peptide)
peptide: {DUPA-Ahx}-K(DOTA)[Ahx][dF]QWAVGH[Sta]L-NH2
SMILES: CC(C)C[C@H](NC(=O)C[C@H](O)[C@H](CC(C)C)NC(=O)[C@H](Cc1c[nH]cn1)NC(=O)CNC(=O)[C@@H](NC(=O)[C@H](C)NC(=O)[C@H](Cc1c[nH]c2ccccc12)NC(=O)[C@H](CCC(N)=O)NC(=O)[C@@H](Cc1ccccc1)NC(=O)CCCCCNC(=O)[C@H](CCCCNC(=O)CN1CCN(CC(=O)O)CCN(CC(=O)O)CCN(CC(=O)O)CC1)NC(=O)CCCCCNC(=O)CC[C@H](NC(=O)N[C@@H](CCC(=O)O)C(=O)O)C(=O)O)C(C)C)C(N)=O
notes: Unmetallated bivalent conjugate; also called [DUPA-6-Ahx-[DOTA]-6-Ahx-RM2]; [DUPA-6-Ahx-Lys[DOTA]-X-RM2], X=6-Ahx

IC50 LNCaP cells (NAALADase assay, [N-acetyl aspartyl 3H-glutamate] substrate, LNCaP homogenized cell membranes) [1]: 11.2 nM
IC50 [2]: 5.14 nM
B3: [DUPA-6-Ahx-[DOTA]-5-Ava-RM2] (peptide)
peptide: {DUPA-Ahx}-K(DOTA)[Ava][dF]QWAVGH[Sta]L-NH2
notes: Unmetallated bivalent conjugate; also called [DUPA-6-Ahx-Lys[DOTA]-X-RM2], X=5-Ava; [DUPA-6-Ahx-Lys(DOTA)-X-RM2] formula (I), X=5-aminovaleric acid
